Experiment [1] deals with Cry1Ai insecticidal protein. The experiment can be described thus: direct ELISA: protein coated at 500 ng/ml, 10 nM tagged synNAPS with SA-AP.
Experiment [2] deals with T1, Cry1Ab insecticidal protein (Bacillus thuringiensis, UniProt P0A370 1-615). The description is as above.
In experiment [3] the target is Cry1Ab.1Ca insecticidal protein. The experiment is described as above.
Experiment [4] deals with T2, mCry3A insecticidal protein (Bacillus thuringiensis subsp. …, UniProt P0A379 48-644, limits assumed).
T2 construct: also called modified Cry3A
T2 sequence: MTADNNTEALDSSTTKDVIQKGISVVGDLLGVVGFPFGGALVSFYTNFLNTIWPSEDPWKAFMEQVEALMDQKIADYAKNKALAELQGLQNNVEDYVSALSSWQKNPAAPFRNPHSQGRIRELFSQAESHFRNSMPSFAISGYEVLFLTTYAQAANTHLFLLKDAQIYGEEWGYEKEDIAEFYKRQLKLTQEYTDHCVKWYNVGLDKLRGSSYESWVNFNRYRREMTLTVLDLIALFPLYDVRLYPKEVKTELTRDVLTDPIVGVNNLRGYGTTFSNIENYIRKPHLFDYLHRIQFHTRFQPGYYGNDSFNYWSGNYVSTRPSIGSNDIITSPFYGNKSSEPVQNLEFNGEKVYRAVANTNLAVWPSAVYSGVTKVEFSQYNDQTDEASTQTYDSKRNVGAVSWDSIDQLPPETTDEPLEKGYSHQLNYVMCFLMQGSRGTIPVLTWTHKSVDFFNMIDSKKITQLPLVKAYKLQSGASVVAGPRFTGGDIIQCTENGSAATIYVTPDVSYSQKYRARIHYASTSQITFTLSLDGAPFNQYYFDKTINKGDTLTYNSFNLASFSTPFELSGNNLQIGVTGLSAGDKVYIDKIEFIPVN
The experiment can be described thus: sandwich ELISA: synNAPS on streptavidin plate, HRP-antibody detection; mCry3A 60 ng/ml.

Experiment [5] concerns the target T1, Cry1Ab insecticidal protein. The experiment can be described thus: sandwich ELISA: synNAPS on streptavidin plate, HRP-antibody detection; Cry1Ab 10 ng/ml.
In experiment [6] the target is T2, mCry3A insecticidal protein. The experiment can be described thus: direct ELISA, coated protein, SA-AP, 405 nm.
The target of experiment [7] is eCry3.1Ab hybrid insecticidal protein. The experiment can be described thus: direct ELISA, coated protein, SA-AP, 405 nm.
Experiment [8] concerns the target T3, Cry1Aa insecticidal protein (Bacillus thuringiensis subsp. aizawai, UniProt P0A367 12-1176). Nature of the experiment: direct ELISA, coated protein, SA-AP, 405 nm.
Experiment [9] deals with Cry1Ai insecticidal protein. Nature of the experiment: direct ELISA, coated protein, SA-AP, 405 nm.
Experiment [10] concerns the target eCry3.1Ab hybrid insecticidal protein. Nature of the experiment: direct ELISA: eCry3.1Ab coated at 1 ug/ml, RGS-His HRP detection.
Experiment [11] has as its target T2, mCry3A insecticidal protein. The experiment can be described thus: direct binding ELISA with leaf extracts expressing synNAPS-13, A405.
Experiment [12] has as its target T1, Cry1Ab insecticidal protein. Described as above.
Experiment [13] concerns the target T2, mCry3A insecticidal protein. Nature of the experiment: direct ELISA: protein coated at 500 ng/ml, 10 nM tagged synNAPS with SA-AP.
The target in experiment [14] is T1, Cry1Ab insecticidal protein. Nature of the experiment: direct ELISA, coated protein, SA-AP, 405 nm.
The target in experiment [15] is Cry1Ab.1Ca insecticidal protein. The experiment can be described thus: direct ELISA, coated protein, SA-AP, 405 nm.
Experiment [16] has as its target eCry3.1Ab hybrid insecticidal protein. The experiment can be described thus: direct ELISA: protein coated at 500 ng/ml, 10 nM tagged synNAPS with SA-AP.
In experiment [17] the target is T3, Cry1Aa insecticidal protein. The description is as above.
The target of experiment [18] is T2, mCry3A insecticidal protein. The experiment can be described thus: affinity capture on synNAPS-13 streptavidin beads from corn leaf extract, eluate measured by ELISA.

B1: synNAPS-2tag ligand (designed binder)
chain: MRGSHHHHHHGSVKVKFKYKGEEKEVDTSKIVWIGRFGKSVYFRYDDNGKTGAGRVYEKDAPKELLDMLARAEREKKLGSGLNDIFEAQKIEWH
modifications: in vivo biotinylation (E. coli BirA strain) on the C-terminal avidin-tag
notes: also called tagged synNAPS 2
For the molecule B1, the “Binding to Insecticidal Protein (read at 405 nm)” value (from here on “Binding to Insecticidal Protein”) in experiment [1] is 2.5 absorbance 405 nm; in experiment [2], 1.8 absorbance 405 nm; in [3] it was 1 absorbance 405 nm. For the same molecule, the “Absorbance at protein concentration (ng/ml)” value (from here on “Absorbance”) is 0 absorbance 450 nm in [4] and 4 absorbance 450 nm in experiment [5]. In addition, the binding result in experiment [6], in [7] and in experiment [8] was “no binding (tested: 10 nM)” each time.

B2: synNAPS-4tag ligand (designed binder)
chain: MRGSHHHHHHGSVKVKFKYKGEEKEVDTSKISYVQRAGKSVYFNYDDNGKTGGGRVFEKDAPKELLDMLARAEREKKLGSGLNDIFEAQKIEWH
modifications: in vivo biotinylation (E. coli BirA strain) on the C-terminal avidin-tag
notes: also called tagged synNAPS 4
In the case of B2, the “Binding to Insecticidal Protein” value in [1] stood at 2.6 absorbance 405 nm; in experiment [2], 1.75 absorbance 405 nm; in experiment [3], 0.75 absorbance 405 nm. For the same molecule, the binding result in experiment [6], in [7] and in experiment [8] was “no binding (tested: 10 nM)” in each case.

B3: synNAPS-5tag ligand (designed binder)
chain: MRGSHHHHHHGSVKVKFVLKGEEKEVDTSKITYVARYGKFVQFDYDDNGKFGAGVVLEKDAPKELLDMLARAEREKKLGSGLNDIFEAQKIEWH
modifications: in vivo biotinylation (E. coli BirA strain) on the C-terminal avidin-tag
notes: also called tagged synNAPS 5
Regarding B3, the “Binding to Insecticidal Protein” value in [2] is 1.1 absorbance 405 nm; in [3] it was 1.6 absorbance 405 nm. The binding result in experiment [6], in experiment [9], in experiment [7] and in [8] was “no binding (tested: 10 nM)” in each case.

B4: synNAPS-13 ligand (designed binder)
chain: MVKVKFKRWGEEKEVDTSKILHVLRVGKYVRFSYDDNGKLGAGYVTEKDAPKELLDMLARAEREKK
As to B4, in [10], the “Binding (OD 450 nm)” value worked out at 4.1 OD 450 nm. Further, the binding result in experiment [11] and in [12] was “no binding” throughout.

B5: synNAPS-9tag ligand (designed binder)
chain: MRGSHHHHHHGSVKVKFAQGGEEKEVDTSKIYRVPRHGKIVFFMYDDNGKGGFGHVTEKDAPKELLDMLARAEREKKLGSGLNDIFEAQKIEWH
modifications: in vivo biotinylation (E. coli BirA strain) on the C-terminal avidin-tag
notes: also called NsynNAPS9; tagged synNAPS 9
In the case of B5, in [13], the “Binding to Insecticidal Protein” value was determined as 0.7 absorbance 405 nm. Moreover, the “Absorbance” value in experiment [4] amounted to 2 absorbance 450 nm; in [5], 0 absorbance 450 nm. For the same molecule, the binding result in experiment [9], in experiment [7], in [8], in experiment [14] and in experiment [15] was “no binding (tested: 10 nM)” in each case.

B6: synNAPS-11tag ligand (designed binder)
chain: MRGSHHHHHHGSVKVKFGLGGEEKEVDTSKIRRVLRLGKLVSFTYDDNGKIGLGDVHEKDAPKELLDMLARAEREKKLGSGLNDIFEAQKIEWH
modifications: in vivo biotinylation (E. coli BirA strain) on the C-terminal avidin-tag
notes: also called tagged synNAPS 11
Take B6: the “Binding to Insecticidal Protein” value in experiment [13] is 2.9 absorbance 405 nm; in experiment [1] it was 0.7 absorbance 405 nm; in [16], 1.5 absorbance 405 nm; in experiment [17], 0.6 absorbance 405 nm. Further, the binding result in experiment [14] and in experiment [15] was “no binding (tested: 10 nM)” in each case.

B7: synNAPS-13tag ligand (designed binder)
chain: MRGSHHHHHHGSVKVKFKRWGEEKEVDTSKILHVLRVGKYVRFSYDDNGKLGAGYVTEKDAPKELLDMLARAEREKKLGSGLNDIFEAQKIEWH
modifications: in vivo biotinylation (E. coli BirA strain) on the C-terminal avidin-tag
notes: also called tagged synNAPS 13
As for B7, the “Absorbance” value in experiment [4] and in experiment [5] was 0 absorbance 450 nm each time. Moreover, in [18], the “Quantity of Protein (ng/ml) eluted from synNAPS-13 beads” value amounted to 0 ng/mL. Besides, the binding result in [6], in experiment [9], in [8], in [14] and in experiment [15] was “no binding (tested: 10 nM)” in each case.

For the origin of these results see patent US20210181204A1 (SYNGENTA PARTICIPATIONS, published 2021).
